Laboratory results from patent KR20230010676A (dated 2023).

Columns and labels:
Assay in all cases: cell-based or functional assay
SARS-CoV-2 S N501Y = SARS-CoV-2 S N501Y (SARS-CoV-2, UniProt P0DTC2 14-1273)
SARS-CoV-2 S S477N = SARS-CoV-2 S S477N (SARS-CoV-2, UniProt P0DTC2 14-1273)
SARS-CoV-2 S N439K = SARS-CoV-2 S N439K (SARS-CoV-2, UniProt P0DTC2 14-1273)
SARS-CoV-2 S L452R = SARS-CoV-2 S L452R (SARS-CoV-2, UniProt P0DTC2 14-1273)
SARS-CoV-2 S E484K = SARS-CoV-2 S E484K (SARS-CoV-2, UniProt P0DTC2 14-1273)
SARS-CoV-2 S K417N = SARS-CoV-2 S K417N (SARS-CoV-2, UniProt P0DTC2 14-1273)
SARS-CoV-2 S T478K = SARS-CoV-2 S T478K (SARS-CoV-2, UniProt P0DTC2 14-1273)
SARS-CoV-2 S S494P = SARS-CoV-2 S S494P (SARS-CoV-2, UniProt P0DTC2 14-1273)
SARS-CoV-2 S A520S = SARS-CoV-2 S A520S (SARS-CoV-2, UniProt P0DTC2 14-1273)
SARS-CoV-2 S N501T = SARS-CoV-2 S N501T (SARS-CoV-2, UniProt P0DTC2 14-1273)
SARS-CoV-2 S A522S = SARS-CoV-2 S A522S (SARS-CoV-2, UniProt P0DTC2 14-1273)
SARS-CoV-2 S Y453F = SARS-CoV-2 S Y453F (SARS-CoV-2, UniProt P0DTC2 14-1273)
SARS-CoV-2 S P384L = SARS-CoV-2 S P384L (SARS-CoV-2, UniProt P0DTC2 14-1273)

Measured: S2E12의 중화 감소 (배)

B1: S2E12 (antibody, V domains shown)
VH: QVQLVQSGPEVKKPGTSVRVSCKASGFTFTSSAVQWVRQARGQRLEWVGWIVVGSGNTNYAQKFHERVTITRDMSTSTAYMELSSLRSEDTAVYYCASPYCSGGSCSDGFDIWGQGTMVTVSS
VL: DIVLTQTPGTLSLSPGERATLSCRASQSVSSSYLAWYQQKPGQAPRLLIYGASSRATGIPDRFSGSGSGTDFTLTISRLEPEDFAVYYCQQYVGLTGWTFGQGTKVEIK
notes: also called S2E12 WT; S2E12 wt
< 3 배: all assays above
